Reference: paper doi:10.1101/2022.11.17.516996v1 (bioRxiv, 2022)

Assays:
[1] = tested on: polarized hCMEC/D3 cell monolayers; assay: Energy dependent uptake of F-Aβ, flow cytometry with or without ATP depletion; assay type: in vitro ADME, human; conditions: 1 μM, 30 min; flow cytometry histograms
lysosomal compartment = conditions: from 25 nM in extracellular fluid; ref [58]; cited from earlier work
[2] = tested on: caveolin-1 phosphorylation on tyrosine 14; assay: Phospho-caveolin-1; assay type: cell-based, human; conditions: Src kinase inhibitor pretreatment before Aβ42; hCMEC/D3 cells; western blotting

Compound | intra-endothelial accumulation in ATP depleted cells compared to control cells [1] | also measured
F-Aβ42: fluorescently labeled soluble Aβ42 | significantly reduced | 
amyloid beta peptide 42 [Aβ42] |  | concentration in the lysosomal compartment (lysosomal compartment): 2500 nM
Cc1ccc(-c2nn(C(C)(C)C)c3ncnc(N)c23)cc1 [PP1] |  | effect of pretreatment on Aβ42 induced caveolin-1 phosphorylation [2]: block the phosphorylation
F-Aβ40: fluorescently labeled soluble Aβ40 | significantly reduced | 
